Test results reported in patent US20250236670A1 (WISTAR INSTITUTE OF ANATOMY AND BIOLOGY, published 2025).

Tests used:
[1] = target: T1, human Siglec-7 on cells (HEK293T-Siglec7 cells; human NK cells and other PBMC populations) (human, UniProt Q9Y286 19-467); assay: cell-based or functional assay
[2] = target: T2, recombinant human Siglec-7 protein (human, UniProt Q9Y286 19-353, limits assumed); assay: SPR, 'Binding of DB7.2 to Siglec-7' [panel B]
T2 construct: Used in ELISA, Western blot and SPR

[3] = target: T2, recombinant human Siglec-7 protein; assay: SPR, titration of anti-Siglec-7 on recombinant human Siglec-7 protein (FIG. 16B)
[4] = target: T2, recombinant human Siglec-7 protein; assay: ELISA on recombinant human Siglec-7, dilution series (axis 'Dilutions', no concentration unit) [panel A]
[5] = target: T1, human Siglec-7 on cells …; assay: flow cytometry on HEK293T-Siglec-7 cells, GFP against Siglec-7 staining [panel B]
Excerpt: For the non-conjugated primary antibodies, PE-secondary anti-human (H+L) (Invitrogen) and PE/AF647-secondary anti-human F(ab′)₂ (Jackson ImmunoResearch Laboratories Inc) were used. Live/Dead Violet viability kit (Invitrogen) was used to exclude dead cells from analysis. For Fluorescence cytometry staining on PBMCs, the following antibodies were used: CD69 PE-Cy5 (clone FN50), PD-1 BV421 (clone EH12.2H7), CCR7 APC-Cy7 (G043H7), CD19 BV785 (clone HIB19), CD27 BV650 (clone 0323), CD56 BV570 (clone HCD56), CD16 BV711 (clone 3G8), CD21 PE-Cy7 (clone BU32) and Siglec-7 (clone 6-434) from Biolegend; CD11c BUV395 (clone B-ly6), CXCR5 BV750 (clone RF8B2), CD3 BUV805 (UCHT1), CD45 AF700 (clone HI30), CD127 PE-CF594 (clone HIL-7RM21), CD25 BUV737 (clone 2A3), CD8 BUV496 (clone RPA-T8), HLA-DR BV605 (clone G46-6), CD38 BUV661 (clone HIT2), CD14 BV480 (clone MP9), CD45RA BUV563 (HI100), CD4 BB790 (clone SK3), CD15 FITC (clone HI98), CD103 BB700 (clone Ber-ACT8), CD161 APC (clone DX12) from BD Biosciences. […] Cells were washed with PBS and incubated with 0, 1 or 10 ug/ml of DB7.2 Siglec-7 antibody diluted in fluorescence-activated cell sorting (FACS) buffer for 20 minutes. […]

T2 sequence (Q9Y286 19-353 limits assumed): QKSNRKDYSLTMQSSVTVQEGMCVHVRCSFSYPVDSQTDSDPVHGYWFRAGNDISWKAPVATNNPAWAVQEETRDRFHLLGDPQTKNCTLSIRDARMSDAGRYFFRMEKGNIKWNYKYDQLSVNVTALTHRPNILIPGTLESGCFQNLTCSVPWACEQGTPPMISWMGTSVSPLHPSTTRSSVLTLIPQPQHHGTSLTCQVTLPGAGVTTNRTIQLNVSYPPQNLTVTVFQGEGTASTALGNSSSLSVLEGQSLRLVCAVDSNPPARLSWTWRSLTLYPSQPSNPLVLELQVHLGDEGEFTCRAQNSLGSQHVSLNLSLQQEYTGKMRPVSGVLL
T1 sequence (Q9Y286 19-467): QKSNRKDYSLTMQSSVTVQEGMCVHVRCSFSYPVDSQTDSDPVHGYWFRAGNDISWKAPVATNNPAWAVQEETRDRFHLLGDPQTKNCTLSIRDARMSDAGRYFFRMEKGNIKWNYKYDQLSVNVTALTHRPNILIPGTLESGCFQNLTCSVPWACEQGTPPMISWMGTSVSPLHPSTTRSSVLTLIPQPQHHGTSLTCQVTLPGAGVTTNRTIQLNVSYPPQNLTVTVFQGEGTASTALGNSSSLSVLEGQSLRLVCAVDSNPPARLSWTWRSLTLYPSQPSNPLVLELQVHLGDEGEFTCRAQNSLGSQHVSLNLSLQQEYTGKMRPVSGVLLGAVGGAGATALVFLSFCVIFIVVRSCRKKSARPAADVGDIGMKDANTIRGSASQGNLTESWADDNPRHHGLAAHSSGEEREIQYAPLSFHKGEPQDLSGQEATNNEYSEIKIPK

Row | binding result [4] | binding result [5] | Binder | IC50, killing of OVISE cells in the presence of human PBMCs (xCELLigence, cell index vs dose at 72 h) [1] [nM] | further results
1 | – | – | DB7.2 (DB-S7-2) Siglec-7 MAb (antibody, human IgG1, V domains shown, Expressed as human IgG1; The VH is the same as that of DB-S7-1 and DB-S7-7; also called DB7.2 Siglec-7 DMAb; DB7.2 anti-Siglec-7 antibody) VH: QVQLVESGGGVVQPGRSLRLSCAASGFTFRTDAMHWVRQAPGKGLEWVAVIWYDGSIKYHADSVKGRFTISRDNSKNTLYLEMNSLRAEDTAVYYCARDRSNSLDHWGQGILVSVSS VL: not shown | 82.7 | EC50, killing of PEO4 cells in the presence of human PBMCs (xCELLigence) [1]: 68.9 nM; koff [2]: 3.6e-05 s⁻¹; kon [2]: 830000 M⁻¹ s⁻¹; t1/2 [2]: 5.33 h; Kd [3]: 0.044 nM
2 | binds | binds | DB7.1 (DB-S7-1) Siglec-7 MAb (antibody, human IgG1, V domains shown, Expressed as human IgG1 (HC + LC plasmids in pVax1, Expi293F cells)) VH: QVQLVESGGGVVQPGRSLRLSCAASGFTFRTDAMHWVRQAPGKGLEWVAVIWYDGSIKYHADSVKGRFTISRDNSKNTLYLEMNSLRAEDTAVYYCARDRSNSLDHWGQGILVSVSS VL: not shown | – | –
3 | – | – | DB7.2_TM Mod (antibody, human IgG1, V domains shown) VH: QVQLVESGGGVVQPGRSLRLSCAASGFTFRTDAMHWVRQAPGKGLEWVAVIWYDGSIKYHADSVKGRFTISRDNSKNTLYLEMNSLRAEDTAVYYCARDRSNSLDHWGQGILVSVSS VL: not shown | 192 | –
4 | binds | binds | DB7.7 (DB-S7-7) Siglec-7 MAb (antibody, human IgG1, V domains shown, Expressed as human IgG1) VH: QVQLVESGGGVVQPGRSLRLSCAASGFTFRTDAMHWVRQAPGKGLEWVAVIWYDGSIKYHADSVKGRFTISRDNSKNTLYLEMNSLRAEDTAVYYCARDRSNSLDHWGQGILVSVSS VL: not shown | – | –
